These sequences were tested on Escherichia coli TOP10 (assay: shrunken log2 fold change of peptide-encoding DNA abundance (4.5 h post-induction vs induction); higher = less antimicrobial activity (less host growth inhibition)). Conditions: time post-induction: 4.5 h; library: site-saturation at positions 5, 18, 19, 20.
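Also: peptides expressed intracellularly from a pBAD plasmid library in pooled LB shake-flask culture, induced with 0.3% L-arabinose, DNA abundance read by NGS, three biological replicates, DESeq2 with apeglm shrinkage.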

Row | Sequence | shrunken log2 fold change
1 | RRIRHRPPRLPRPRPRPTVQPRP | 0.118
2 | RRIRHRPPRLPRPRPRPTVTPRP | -0.0378
3 | RRIRHRPPRLPRPRPRPTWSPRP | 0.0859
4 | RRIRHRPPRLPRPRPRPTYWPRP | 0.293
5 | RRIRHRPPRLPRPRPRPVCMPRP | -0.0845
6 | RRIRHRPPRLPRPRPRPVERPRP | -0.00973
7 | RRIRHRPPRLPRPRPRPVEVPRP | 0.0201
8 | RRIRHRPPRLPRPRPRPVFVPRP | -0.182
9 | RRIRHRPPRLPRPRPRPVFWPRP | 0.0698
10 | RRIRHRPPRLPRPRPRPVGSPRP | 0.145
11 | RRIRHRPPRLPRPRPRPVIPPRP | -0.0562
12 | RRIRHRPPRLPRPRPRPVIYPRP | -0.678
13 | RRIRHRPPRLPRPRPRPVKKPRP | 0.0327
14 | RRIRHRPPRLPRPRPRPVLFPRP | -0.0987
15 | RRIRHRPPRLPRPRPRPVLWPRP | 0.234
16 | RRIRHRPPRLPRPRPRPVLYPRP | -0.317
17 | RRIRHRPPRLPRPRPRPVMPPRP | 0.189
18 | RRIRHRPPRLPRPRPRPVNQPRP | -0.0313
19 | RRIRHRPPRLPRPRPRPVPRPRP | 0.429
20 | RRIRHRPPRLPRPRPRPVPTPRP | 0.144
21 | RRIRHRPPRLPRPRPRPVQSPRP | 0.0377
22 | RRIRHRPPRLPRPRPRPVQWPRP | 0.0118
23 | RRIRHRPPRLPRPRPRPVRDPRP | 0.298
24 | RRIRHRPPRLPRPRPRPVRFPRP | 0.106
25 | RRIRHRPPRLPRPRPRPVTCPRP | 0.0254

Row | Sequence | shrunken log2 fold change
26 | RRIRHRPPRLPRPRPRPVWQPRP | 0.0177
27 | RRIRHRPPRLPRPRPRPVYCPRP | -0.49
28 | RRIRHRPPRLPRPRPRPWAFPRP | 0.0477
29 | RRIRHRPPRLPRPRPRPWAGPRP | -0.15
30 | RRIRHRPPRLPRPRPRPWCPPRP | -0.402
31 | RRIRHRPPRLPRPRPRPWDCPRP | -0.00608
32 | RRIRHRPPRLPRPRPRPWDLPRP | -0.245
33 | RRIRHRPPRLPRPRPRPWFWPRP | 0.0142
34 | RRIRHRPPRLPRPRPRPWGCPRP | -0.106
35 | RRIRHRPPRLPRPRPRPWMVPRP | -0.0202
36 | RRIRHRPPRLPRPRPRPWNCPRP | -0.366
37 | RRIRHRPPRLPRPRPRPWPMPRP | 0.0159
38 | RRIRHRPPRLPRPRPRPWPRPRP | 0.166
39 | RRIRHRPPRLPRPRPRPWRGPRP | 0.115
40 | RRIRHRPPRLPRPRPRPWSKPRP | -0.301
41 | RRIRHRPPRLPRPRPRPWTTPRP | 0.00489
42 | RRIRHRPPRLPRPRPRPWVMPRP | -0.166
43 | RRIRHRPPRLPRPRPRPWWCPRP | -0.034
44 | RRIRHRPPRLPRPRPRPWWYPRP | -0.0664
45 | RRIRHRPPRLPRPRPRPYAFPRP | 0.0613
46 | RRIRHRPPRLPRPRPRPYANPRP | -0.271
47 | RRIRHRPPRLPRPRPRPYFCPRP | -0.444
48 | RRIRHRPPRLPRPRPRPYGSPRP | -0.0135
49 | RRIRHRPPRLPRPRPRPYIPPRP | -0.194
50 | RRIRHRPPRLPRPRPRPYKDPRP | -0.017

Row | Sequence | shrunken log2 fold change
51 | RRIRHRPPRLPRPRPRPYKMPRP | -0.226
52 | RRIRHRPPRLPRPRPRPYNAPRP | -0.00175
53 | RRIRHRPPRLPRPRPRPYNTPRP | -1.01
54 | RRIRHRPPRLPRPRPRPYSQPRP | -0.177
55 | RRIRHRPPRLPRPRPRPYSTPRP | 0.122
56 | RRIRHRPPRLPRPRPRPYTNPRP | -0.461
57 | RRIRHRPPRLPRPRPRPYWYPRP | -1.25
58 | RRIRIRPPRLPRPRPRPAADPRP | 0.0637
59 | RRIRIRPPRLPRPRPRPAALPRP | -0.134
60 | RRIRIRPPRLPRPRPRPAEMPRP | 0.0228
61 | RRIRIRPPRLPRPRPRPAFIPRP | -0.509
62 | RRIRIRPPRLPRPRPRPAFKPRP | -0.317
63 | RRIRIRPPRLPRPRPRPAGHPRP | -0.159
64 | RRIRIRPPRLPRPRPRPAHAPRP | -0.0674
65 | RRIRIRPPRLPRPRPRPAHHPRP | -0.176
66 | RRIRIRPPRLPRPRPRPAILPRP | 0.089
67 | RRIRIRPPRLPRPRPRPAKIPRP | -0.176
68 | RRIRIRPPRLPRPRPRPAMEPRP | 0.0199
69 | RRIRIRPPRLPRPRPRPANRPRP | -0.159
70 | RRIRIRPPRLPRPRPRPANVPRP | -0.0188
71 | RRIRIRPPRLPRPRPRPAPPPRP | 0.398
72 | RRIRIRPPRLPRPRPRPAPQPRP | 0.363
73 | RRIRIRPPRLPRPRPRPAQTPRP | -0.0145
74 | RRIRIRPPRLPRPRPRPAQWPRP | 0.211
75 | RRIRIRPPRLPRPRPRPARYPRP | -0.264

Row | Sequence | shrunken log2 fold change
76 | RRIRIRPPRLPRPRPRPASQPRP | -0.073
77 | RRIRIRPPRLPRPRPRPATYPRP | 0.00351
78 | RRIRIRPPRLPRPRPRPAVWPRP | 0.141
79 | RRIRIRPPRLPRPRPRPAWIPRP | -0.187
80 | RRIRIRPPRLPRPRPRPCAYPRP | -0.0396
81 | RRIRIRPPRLPRPRPRPCCDPRP | -0.67
82 | RRIRIRPPRLPRPRPRPCCRPRP | -0.322
83 | RRIRIRPPRLPRPRPRPCDYPRP | -1.01
84 | RRIRIRPPRLPRPRPRPCGKPRP | -0.025
85 | RRIRIRPPRLPRPRPRPCGLPRP | -0.0428
86 | RRIRIRPPRLPRPRPRPCICPRP | -0.148
87 | RRIRIRPPRLPRPRPRPCLAPRP | -0.693
88 | RRIRIRPPRLPRPRPRPCLMPRP | -0.601
89 | RRIRIRPPRLPRPRPRPCMPPRP | -0.908
90 | RRIRIRPPRLPRPRPRPCNDPRP | -0.0787
91 | RRIRIRPPRLPRPRPRPCNHPRP | -0.232
92 | RRIRIRPPRLPRPRPRPCNMPRP | -0.0732
93 | RRIRIRPPRLPRPRPRPCQCPRP | -1.17
94 | RRIRIRPPRLPRPRPRPCQEPRP | -0.119
95 | RRIRIRPPRLPRPRPRPCQSPRP | -0.00131
96 | RRIRIRPPRLPRPRPRPCRPPRP | -0.0283
97 | RRIRIRPPRLPRPRPRPCRYPRP | -0.317
98 | RRIRIRPPRLPRPRPRPCSSPRP | 0.00235
99 | RRIRIRPPRLPRPRPRPCTQPRP | -0.361
100 | RRIRIRPPRLPRPRPRPCTRPRP | 0.0316

Row | Sequence | shrunken log2 fold change
101 | RRIRIRPPRLPRPRPRPCVPPRP | -0.162
102 | RRIRIRPPRLPRPRPRPDCKPRP | -0.477
103 | RRIRIRPPRLPRPRPRPDETPRP | -0.183
104 | RRIRIRPPRLPRPRPRPDFMPRP | -0.661
105 | RRIRIRPPRLPRPRPRPDGQPRP | -0.0297
106 | RRIRIRPPRLPRPRPRPDKAPRP | -0.00957
107 | RRIRIRPPRLPRPRPRPDKTPRP | -0.0467
108 | RRIRIRPPRLPRPRPRPDKWPRP | -0.318
109 | RRIRIRPPRLPRPRPRPDLHPRP | 0.0268
110 | RRIRIRPPRLPRPRPRPDMAPRP | -0.0603
111 | RRIRIRPPRLPRPRPRPDMHPRP | -0.0689
112 | RRIRIRPPRLPRPRPRPDNAPRP | -0.717
113 | RRIRIRPPRLPRPRPRPDNFPRP | -0.0215
114 | RRIRIRPPRLPRPRPRPDNGPRP | -0.375
115 | RRIRIRPPRLPRPRPRPDPCPRP | -0.224
116 | RRIRIRPPRLPRPRPRPDPWPRP | 0.0621
117 | RRIRIRPPRLPRPRPRPDQAPRP | -0.002
118 | RRIRIRPPRLPRPRPRPDQRPRP | 0.0228
119 | RRIRIRPPRLPRPRPRPDQWPRP | 0.0363
120 | RRIRIRPPRLPRPRPRPDRHPRP | -0.504
121 | RRIRIRPPRLPRPRPRPDRTPRP | -0.0709
122 | RRIRIRPPRLPRPRPRPDTEPRP | -0.853
123 | RRIRIRPPRLPRPRPRPDVCPRP | -0.225
124 | RRIRIRPPRLPRPRPRPDVNPRP | 0.0617
125 | RRIRIRPPRLPRPRPRPDVPPRP | -0.372

Row | Sequence | shrunken log2 fold change
126 | RRIRIRPPRLPRPRPRPDVTPRP | -0.0322
127 | RRIRIRPPRLPRPRPRPDYMPRP | -1.09
128 | RRIRIRPPRLPRPRPRPEDAPRP | -0.0131
129 | RRIRIRPPRLPRPRPRPEFSPRP | 0.00834
130 | RRIRIRPPRLPRPRPRPEGLPRP | -0.185
131 | RRIRIRPPRLPRPRPRPEKAPRP | -0.0795
132 | RRIRIRPPRLPRPRPRPENDPRP | -0.312
133 | RRIRIRPPRLPRPRPRPENPPRP | -0.695
134 | RRIRIRPPRLPRPRPRPENRPRP | -0.176
135 | RRIRIRPPRLPRPRPRPEREPRP | 0.0556
136 | RRIRIRPPRLPRPRPRPERGPRP | 0.183
137 | RRIRIRPPRLPRPRPRPERKPRP | 0.00827
138 | RRIRIRPPRLPRPRPRPERVPRP | 0.089
139 | RRIRIRPPRLPRPRPRPERYPRP | -0.175
140 | RRIRIRPPRLPRPRPRPESQPRP | 0.0553
141 | RRIRIRPPRLPRPRPRPEVRPRP | -0.0584
142 | RRIRIRPPRLPRPRPRPEWYPRP | -0.142
143 | RRIRIRPPRLPRPRPRPEYGPRP | -0.0842
144 | RRIRIRPPRLPRPRPRPEYWPRP | -0.0686
145 | RRIRIRPPRLPRPRPRPFAWPRP | 0.00684
146 | RRIRIRPPRLPRPRPRPFCIPRP | -0.581
147 | RRIRIRPPRLPRPRPRPFCMPRP | -0.4
148 | RRIRIRPPRLPRPRPRPFDEPRP | -0.288
149 | RRIRIRPPRLPRPRPRPFDPPRP | -0.438
150 | RRIRIRPPRLPRPRPRPFDRPRP | 4.11
